Measured values as given in patent US12485079B2, “Compositions and methods relating to pigmentation” (Alastin Skincare, Inc., priority 2020, dated 2025).

Assays:
melanogenic genes = assay: Cell line melanogenic gene activity testing, overall conclusion; format: cell-based, human; details: conclusion over melanocytes, keratinocytes, HUVECs
Description: (§1) Four cell types associated with pigmentation pathways-melanocytes, keratinocytes, fibroblasts and endothelial (HUVEC) cells-were analyzed for gene expression.
(§2) To simulate the UV stimulatory pigmentation pathway process, melanocytes were pre-treated with PGE2, a normal direct consequence of UV light exposure usually emanating from exposed keratinocytes. After the 48 hour attachment culture, these melanocytes were induced with 10 uM PGE2 in melanocyte media for 24 hrs. The four primary human adult dermal cell lines were cultured and plated in well plates in triplicate and then treated with 11 different compound treatments (plus DMSO control). After 48 hours of attachment culture, the remaining fibroblasts, HUVECs and keratinocytes were treated with the test compounds listed in Table 6.
(§3) After 24 hours of compound exposure, RNA lysate preparation was carried out and samples were shipped to MedGenome for RNA extraction, library construction and sequencing to 25M paired end 100 bp reads per sample. Library prep and sequencing was completed at MedGenome.

[1] = system: PMEL, tyrosinase genes, MC1/4R, EDNRB, MITF, ERK1/2, JNK, AKT1; assay: Gene expression studies of Example 5; format: cell-based
From the text: The methods similar to Examples 3-4 were used to measure expression of PMEL, tyrosinase genes, MC1/4R, EDNRB, MITF, ERK1/2, JNK, and ANKT1.
FIGS. 10A-10D illustrates the expression of PMEL (FIG. 10A), Tyrosinase genes (FIG. 10B), MC1/4R (FIG. 10C), and EDNRB (FIG. 10D) after treatment of endothelial cells with lactoferrin (Lacto), peptide derived from lactoferrin (TCV), hexapeptide-12 (Hex12), tripeptide-1 and hexapeptide-12 (TriHex), hexapeptide-11 (Hex11), tranexamic acid (Tran acid) octapeptide (Octa), phosphatidylserine (phos), Cannabidiol (CBD), and all (total).
MITF is regulated by phosphorylation. Specifically, the MAPK and Akt pathways are known to phosphorylate MITF at certain sites. FIGS. 12A-12C illustrate the expression of ERK1/2 (MAPK3/MAPK1) (FIG. 12A), JNK (FIG. 12B), AKT1 (FIG. 12C) after treatment of endothelial cells with lactoferrin (Lacto), peptide derived from lactoferrin (TCV), hexapeptide-12 (Hex12), tripeptide-1 and hexapeptide-12 (TriHex), hexapeptide-11 (Hex11), octapeptide (Octa), phosphatidylserine (phos), Cannabidiol (CBD), and all (total).

[2] = system: hTERT-immortalized dermal melanocytes; assay: Melanocyte assay, absorbance of lysate pellets (Example 6); format: cell-based, human; details: melanocyte lysate pellet, 5 days
Description: hTERT-immortalized dermal melanocytes were treated with various compounds.
Stocks of compounds 1 through 10 on the list below were suspended in either complete melanocyte growth media or DMSO (indicated in parentheses.) Each compound re-suspension was then diluted in melanocyte growth media to the final concentrations in Table 9.
Lysates were prepared for each sample. Briefly, 6.6×10^5 cells from each sample was spun down and collected in a vial. 150 uL of CHAPS lysis buffer was added to each duplicate sample, vortexed and placed in a dry-ice/ethanol bath for 2 minutes, then left at room temp until completed thawed. This freeze thaw was done one more time, for a total of two freeze/thaw cycles. The lysate samples were spun for 15 minutes at 14,800 rpm. The supernatant was removed, leaving a black pellet in the vial. The pellet was re-suspended in 100 uL of a 1 M NaOH/10% DMSO solution and incubated at 80° C. for 90 minutes, pipet mixing at 30 minutes, 60 minutes and at 90 minutes.
100 uL of each duplicate sample at each concentration was added to individual wells of a flat bottom 96 well plate and absorbance readings were taken at 405 nm, 490 nm and 492 nm on the Envision 2103 Multilabel Reader.

[3] = system: melanogenic genes in melanocytes; assay: Gene expression study (RNA sequencing) in PGE2-induced melanocytes; format: cell-based, human
Description: as §1, §2, §3

[4] = system: hTERT-immortalized dermal melanocytes; assay: Melanocyte assay, daily inspection of morphology and survival (Example 6); details: both 500 and 1000 ug/mL
Description: Melanocytes were initially plated in 6-well tissue culture plate (1.5×10^3 cells per well) in melanocyte growth media (Dermal Cell Basal Medium (ATCC® PCS-200-030 supplemented with Melanocyte Growth Kit (ATCC® PCS-200-041). Melanocytes were then expanded into 10 cm tissue culture plates at concentrations recommended by ATCC. The cells appear to fully adhere to the plate/dish while culturing with a webbed morphology. Cells were cultured at 37° C. 5% CO2 incubator.
Once the melanocytes were 100% confluent in 6-well plates, the melanocyte growth media was removed and the melanocytes were treated with media containing the above compounds; duplicate wells for each compound/concentration listed above. The duplicate vehicle control wells were fed melanocyte growth media only or melanocyte growth media with DMSO (10 uL per 10 mL melanocyte growth media).
The cells were fed the appropriate media for the next 5 days. Each day, the cells were inspected for morphology.

[5] = system: melanocytes (melanin production); assay: In vitro melanocyte comparative analysis via absorbance readings (Example 4); format: cell-based; details: for Absorbance 405 nm / Absorbance 490 nm / Absorbance 492 nm: melanocyte lysates, 4 days
Description: Melanocytes were cultured in 6-well plates containing growth media. Once confluent, 2 concentrations of each of the 10 compounds were added to the cells in triplicate wells for 4 days. There were a total of eleven 6-well plates, one for each compound treatment and one for the vehicle control. Absorbance readings were taken on the lysates prepared for each well of the 6-well plates, normalizing for cells counts. […] Additional validation was carried out using MSH addition to media to confirm increased stimulation of melanin production. The following compounds used in this study are seen in Table 7.

B1: Lactoferrin (protein, UniProt P02788 20-710, looked up)
Lactotransferrin: GRRRSVQWCAVSQPEATKCFQWQRNMRKVRGPPVSCIKRDSPIQCIQAIAENRADAVTLDGGFIYEAGLAPYKLRPVAAEVYGTERQPRTHYYAVAVVKKGGSFQLNELQGLKSCHTGLRRTAGWNVPIGTLRPFLNWTGPPEPIEAAVARFFSASCVPGADKGQFPNLCRLCAGTGENKCAFSSQEPYFSYSGAFKCLRDGAGDVAFIRESTVFEDLSDEAERDEYELLCPDNTRKPVDKFKDCHLARVPSHAVVARSVNGKEDAIWNLLRQAQEKFGKDKSPKFQLFGSPSGQKDLLFKDSAIGFSRVPPRIDSGLYLGSGYFTAIQNLRKSEEEVAARRARVVWCAVGEQELRKCNQWSGLSEGSVTCSSASTTEDCIALVLKGEADAMSLDGGYVYTAGKCGLVPVLAENYKSQQSSDPDPNCVDRPVEGYLAVAVVRRSDTSLTWNSVKGKKSCHTAVDRTAGWNIPMGLLFNQTGSCKFDEYFSQSCAPGSDPRSNLCALCIGDEQGENKCVPNSNERYYGYTGAFRCLAENAGDVAFVKDVTVLQNTDGNNNEAWAKDLKLADFALLCLDGKRKPVTEARSCHLAMAPNHAVVSRMDKVERLKQVLLHQQAKFGRNGSDCPDKFCLFQSETKNLLFNDNTECLARLHGKTTYEKYLGPQYVAGITNLKKCSTSPLLEACEFLRK
For B1, the “effects on melanogenesis activity” value (melanogenic genes) was “significant effects on melanogenesis activity”, the “melanogenic activity (expression of PMEL, Tyrosinase genes, MC1/4R, EDNRB; FIGS. 10A-10D)” value ([1]; after treatment of endothelial cells) was “robust melanogenic activity” and the “effects on melanogenic activity (kinase expression linked to decreased MITF expression)” value ([1]; conclusion of Example 5) was “significant effects”. The “Absorbance 405 nm” value ([2]; 500 ug/uL) was 0.509, the “Absorbance 490 nm” value ([2]; 500 ug/uL) was 0.334 and the “Absorbance 492 nm” value ([2]; 500 ug/uL) was 0.217. The “Absorbance 405 nm” value ([2]; 1000 ug/uL) was 0.519, the “Absorbance 490 nm” value ([2]; 1000 ug/uL) was 0.312 and the “Absorbance 492 nm” value ([2]; 1000 ug/uL) was 0.226. The “melanogenic activity (FIGS. 3A-3D)” value ([3]; melanocytes pre-treated with 10 uM PGE2, 24 hours of compound exposure) was “particularly dominant in melanogenic activity”, the “expression of melanogenic genes (FIG. 4, FIG. 5)” value ([3]; melanocytes, 24 hours of compound exposure) was “downregulation of melanogenic genes” and the melanocyte morphology ([4]; 24 hour post-initial dosing) was “circular morphology”. The melanocyte morphology ([4]; 48 hours post-initial dosing, maintained through the 5 day dosing period) was “returned to normal morphology”, the “Absorbance 405 nm” value ([5]; 500 ug/uL) was 0.509 and the “Absorbance 490 nm” value ([5]; 500 ug/uL) was 0.334. The “Absorbance 492 nm” value ([5]; 500 ug/uL) was 0.217, the “Absorbance 405 nm” value ([5]; 1000 ug/uL) was 0.519 and the “Absorbance 490 nm” value ([5]; 1000 ug/uL) was 0.312. For the same molecule, the “Absorbance 492 nm” value ([5]; 1000 ug/uL) was 0.226 and the “regulation of melanogenesis (decrease of absorption = decreased melanin formation)” value ([5]; melanocytes, Table 8) was “Regulation of melanogenesis was observed”.
